For this assay, the target named is RSV postfusion F (Flys-GCN without the StrepII-tag) (respiratory syncytial virus (RSV)). The assay can be described thus: cryo-EM structure.

These results are taken from publication PMC12340942.

In general, stoichiometry N refers to a count of units in the complex or per binding partner.

Regarding “RSV postfusion F (Flys-GCN without the StrepII-tag) (domain or fragment)”, the stoichiometry N worked out at 3.
